Assay results published in PMC10992053, “Rationally introducing non-canonical amino acids to enhance catalytic activity of LmrR for Henry reaction” (Bioresources and Bioprocessing, 2024).

Substrate: O=Cc1ccc([N+](=O)[O-])cc1
Experiment: purified protein
Details: nitromethane 1 M (excess), 3-18 mM aldehyde, 0.3 mg/mL enzyme, 40 °C, 5 min
Excerpt: Henry reaction, product by HPLC, Michaelis-Menten fit on LmrR (Lactococcal multidrug resistance Regulator)

B1: LmrR (Lactococcal multidrug resistance Regulator) (Lactococcus cremoris subsp. cremoris MG1363) (protein)
chain: MAEIPKEMLRAQTNVILLNVLKQGDNYVYGIIKQVKEASNGEMELNEATLYTIFKRLEKDGIISSYWGDESQGGRRKYYRLTEIGHENMRLAFESWSRVDKIIENLEANKKSEAIK
With B1 as the protein, how does the Km read?
Its Km is 9.30 mM.

What about the Vmax of the same protein?
Its Vmax is 1290 µM/min.

And the kcat?
The kcat was 0.967 s⁻¹.

And the kcat/Km?
The kcat/Km was 104 M⁻¹ s⁻¹.
